Reference: patent publication US20060183664A1, “Pharmaceutical composition for delayed hypersensitivity” (priority 2001, published 2006)

Molecular target: T1, PAR-2 (Homo sapiens, UniProt P55085)
T1 construct: expressed in transfected cells; host or cells: NCTC2544 cells
T1 sequence (P55085 26-397): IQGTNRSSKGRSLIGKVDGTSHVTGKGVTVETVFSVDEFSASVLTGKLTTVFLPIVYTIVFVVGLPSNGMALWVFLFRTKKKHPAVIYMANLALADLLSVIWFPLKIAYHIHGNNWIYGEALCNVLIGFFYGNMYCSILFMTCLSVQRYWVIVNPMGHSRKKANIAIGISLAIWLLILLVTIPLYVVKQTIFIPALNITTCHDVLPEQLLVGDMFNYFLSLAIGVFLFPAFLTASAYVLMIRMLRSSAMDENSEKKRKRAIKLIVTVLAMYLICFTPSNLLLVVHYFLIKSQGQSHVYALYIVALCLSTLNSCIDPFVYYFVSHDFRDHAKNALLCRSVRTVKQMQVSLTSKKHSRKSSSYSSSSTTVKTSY
Assay: Assay of PAR-2 activation using inositol phosphates as an indicator in NCTC2544 cells with stably high expression of PAR-2
Format: cell-based
Conditions: subject substance added 15 min before stimulation
Description: The invention also provides a novel method for measuring PAR-2 activity. PAR-2 belongs to G-protein-coupled receptor (GPCR) family, and produces inositol phosphates as a second messenger upon activation of the receptor. Based on this mechanism, the effects of subject substances in activation of PAR-2 can be determined quantitatively by quantifying produced inositol phosphates in PAR2-expressing cells by an ion chromatography or the like.
NCTC2544 cells with stably high expression of PAR-2 were cultured in the serum-free medium containing […]/ml of [^3H]-myo-inositol for 18 hours. Lithium chloride (final […]) was added 30 min before the stimulation, and subsequently cells were stimulated with trypsin (1 to 30 nM) or the PAR-2 agonist peptide, SLIGKV (10 to 300 μM). After 45 min the lipid component was extracted with methanol and separated using an anion exchanging resin (AG1-X, formate form). Then the yield of inositol phosphates was determined in a scintillation counter. The subject substance was added 15 min before the stimulation.

B1: trypsin inhibitor derived from soybeans: a trypsin inhibitor derived from soybeans, used as subject substance in the PAR-2 inositol phosphate assay (protein, UniProt P01070 25-205, looked up)
Trypsin inhibitor A: DFVLDNEGNPLENGGTYYILSDITAFGGIRAAPTGNERCPLTVVQSRNELDKGIGTIISSPYRIRFIAEGHPLSLKFDSFAVIMLCVGIPTEWSVVEDLPEGPAVKIGENKDAMDGWFRLERVSDDEFNNYKLVFCPQQAEDDKCGDIGISIDHDDGTRRLVVSKNKPLVVQFQKLDKESL
Stimulation with PAR-2 activating peptide SLIGKV
  SLIGKV-mediated activation of PAR-2 (inositol phosphate production): not affected
Stimulation with trypsin
  Trypsin-mediated activation of PAR-2 (inositol phosphate production): inhibited
